Source: the nanobody polyreactivity screen of Harvey et al. (2022)

Assay: yeast display, Sf9 membrane polyspecificity reagent, FACS + sequencing; frameworks hold sequencing errors
How it was run: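 Synthetic nanobody libraries on Saccharomyces cerevisiae BJ5465 were galactose-induced for 36–48 hours, stained 1 hour at 4 °C with 10% biotinylated, detergent-solubilized Sf9 membrane reagent and enriched on streptavidin microbeads. FACS then separated cells into low and high (top ~1%) gates by anti-HA (expression) and streptavidin (reagent binding) fluorescence. Genes were colony-PCR amplified, MiSeq 2 × 250 sequenced and CDR-length filtered. A clone's polyreactivity label is that of its gate of origin.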

Sequence | polyreactivity (PSR sort gate)
QVQLVESGGGLVQAGGSLRLSCAASGGILPKYAMGWYRQAPGKERELVAAIDGGADSTYYADSVKGRFTISRDIAKNTVYLQLNSLKPEDTAVYFCGADGSLHAGHWRTYGYYYWGQGTQVTVSS | low polyreactivity
QVQLVESGGGLVQAGGSLRLSCAASGRTFAKYAMGWYRQAPGKEREFVAAITRGDTTNYADSVKGRFTISRDNAKNTVYLQMNSLKPEDTAVYYCNADSLYYDYQTVDVQALDYWGQGTQVTVSS | low polyreactivity
QVQLVESGGGLVQAGGSLRLSCAASGFTFTRNAMGWSRPAPGKERELVAAISKRGGTTYYADSVKGRFTISRDNAKNTVYLQMNSLKPEDTAVYYCAKDGGITGGYWGQGTQVSVSS | high polyreactivity
QVQLVESGGGLVQAGGSLRLSCAASGSTFGFNPMGWYRQAPGKERELVAAITGSGGSTYYADSVKGRFTISRDNAKNTVYLQMNSLKPEDTAVYYCARETYGDYVHYDYWGQGTQVTVSS | low polyreactivity
QVQLVESGGGLVQAGGSLRLSCAASGRIFEFYAMGWYRQAPGKERELVAAISFSGTSTYYADSVKGRFTISRDNAKNTVYLQMNSLKPEDTAVYYCAVRGVGADYDYWGQGTQVTVSS | low polyreactivity
QVQLVESGGGLVQAGGSLRLSCAASGSIFNTYVMGWYRQAPGKERELVAAITYSAGGDTYYADSVKGRFTISRDNAKNTVYLQMNSLKPEDTAVYYCAAEYTYLDAYGSYDYWGQGTQVTVSS | low polyreactivity
QVQFVESGGGVVQAGGSLRLSCAASGNIPYWYAMGWSRPAPAKERELVAAISSRGNTYYADSVKGRFTISRDNAKNNVYLQMNSLKQEDTAVYYCAAYAGSFYYWGQGTQVTVSS | high polyreactivity
HVQLVESGGGLVQAGGSLRLSCAASGFIIGYYAMGWYRQAPGKERELVASITWSTTSTYYADSVKGRFTISRDNAKNTVYLQMNSLKPEDTAVYYCAADLQSKLPSSIYIGDYWGQGTQVTVSS | low polyreactivity
QVQLVESGGCLVQAGGSLRLSCAASGFIFGSNVMGWYRQAPGKERELVAAISYSGASTYYADSVKGRFTISRDNAKNTVYLQMNSLKPEDTAVYYCNAESYYFYWPVYSYDYWGQGTQVTVSS | low polyreactivity
QVQLVESGGGLVQAGGSLRLSFAASGSTFTINAMGWYRPAPGKERELVAAINDGHDTYYADSVKGRFTISRDNAKNTVYLQMNSLKPEDTAVYFCAADIIYGYEVYTYTSDYWGQGTQVTVSS | low polyreactivity
QVQLVESGGGLVQAGGSLRLSCAASGGTFGSYTMGWYRQAPGKERELVAAISSGGGTDYADSVKGRFTISRDNAKNTVYLQMNSLIPEDTAVYYCYAKSYYAWGSVRYPQTFDYWGQGTQVTVSS | low polyreactivity
QVQLVESGGGLVQAGGSLRLSCAASGSTFYVNAMGWYRQAPGKERELVASISSSSGSTYYADSVKGRFTISRDNAKNTVYLQMNSLKPEDTAVYYCAAEVGIFIWFDYWGQGTQVTVSS | low polyreactivity
QVQLVESGGGLVQAGGSLRLSCAASGRIFYAYTMGWYRQAPGKERELVAAISGSGSTYYADSVKGRFTISRDNAKNTVYLQMNSLKPEDTAVYYCAADVTGGRKYDYWGQGTQVTVSS | low polyreactivity
QVQLVESGGGLVQAGGSLRLSSAASGSIFFEYAMRWSRQAPGNEREWVASINRGGGSTYYADSVKGRFTISRDNAKNTVYLQMNSLKPEDTAVYYCAAQWKYRQSYLDYYWGQGTQVTVSS | low polyreactivity
QVQLVESGGGLVQAGGSLRLSCAASGSIFLEYAMGWYRQAPGKERELVAAISSSGGSTYYADSVKGRFTISRDNAKYTVYLQMNSLKPEDTAVYYCAAGGHYYSSPGYNYWGQGTQVTVSS | high polyreactivity
QVQLVESGGGLVQAGGSLRLSCAASGSTFIRYTMGWYRQAPGKERELVAAISTGGTNYADSVKGRFTISRDNAKNTVYLQMYSLKPGDTAVYYCAKPSSPSLGGVSDRIYWGQGTQVTVSS | low polyreactivity

Sequence | polyreactivity (PSR sort gate)
QVQLVESGGGLVQAGGSLRLSCAASGRIFWGSAMGWFRQAPGKERELVAAITRSGGRTYYADSVKGRFTISRDNAKNTVYLQRNSLKPDDTPVYYCAAYYWYKWGYKYGYWGQGTQVTVST | high polyreactivity
QVQLVESGGGLVQAGGSLRLSCAASGRTFYPNVMGWYRQAPGKERELVAAITSGGSTYYADSVKGRFTISRDNAKNTVALEMNSQKPEDTAVYYCAVAYAGGGSRKYDYWGQGTQVTVSS | low polyreactivity
QVQLVESGGGLVQAGGSLRLSCASGRIFKKNALGWYRQAPGKERELVAGITISGGRTYYADSVKGRFTISRDNAKNTVYLQMNSLKPEDTAVYYCNAGPDRRVSYYRLLDHWGQGTQVTVSS | low polyreactivity
QVQLVESGGCLVQAGGSLRLSCAASGNTIIRYAMGWYRQAPGKERELVAAISYSGGRTYYADSVKGRFTISRDNAKNTVYLQMNSLKPVDNAVYYCNAASRYGGDYWGQGTQVTVSS | high polyreactivity
QVQLVESGGGLVQAGGSLRLSCAASGRIFGGYTMGWYRQAPGKERELVAAITGSGGRTYYADSVKGRFTISRDKAKNTVYLQMNSLKPDETAVYYCNTVYRYRYYWGQGTQVTVSS | high polyreactivity
QVQLVESGGGLVQAGGSLRLSCAASGRIFLGYAMGWYRQAPGKEREFVAAITSSGGSTYYADSVKGRFTISRDNAKNTVYLLMNSLKPEDTAVYYCAARVTKLRTSSLRGYWGQGTQVTVSS | high polyreactivity
QGQLVESGGRLVQAGGSLRLSCAASGFIFRSYAMGWYRQAPAKERELVAVISRRGVNTPYADSVKGRFTISRDTSKNTVYLQMNSLKAEDTAVYYCAKGLTALGDYWGQGTQVNVSS | high polyreactivity
QVQLVESGGGLVQAGGSLRLSCAASGRTYWPNALGWSRQARGKERELVAAISWRGGSTSYADSVKGRFTISRDNAKNTVYLQMNRLKPEDTAVYYCAATSIRRNSKVLISGRLYDYWGQGTQVTVSS | high polyreactivity
QVQLVESGAGLVQAGGSLRLCCAASGRIFDWYVMGWYRQAPGKEWELVAAINSGVSTKYADSVKGRFTISRDNAKNTVYLQMNSLKPEDTAVYYCAAQSFSDYRRTGRKSSYYYWGQVTQVTVSS | low polyreactivity
QVQLVESGGGLVQAGGSLRLSCAASGNTFYVNVMGWYRHAPGKEREFVAAISTRGVSTSYADSVKGRFTISRDYAKNTVYLQMNRLKPEDTAVYYCAKRFLPPGRAVTYDYWGQGTQVTVSS | high polyreactivity
QVQLVESGAGLVQAGGSLRLSCAASGRTFYNNAMGWYRQAPGKERELVAAISQRTGRTYYADSVKGRFTISRDNAKNTVYLQMNSLKPEDTAVYYCAARTLSYEYNYWGQGTQVTVSS | high polyreactivity
QVQLVESGGCLVQAGGSLRLSCAASGSTFNFYAMGWYRQAPGKEREFVAAITSSGDSTYYADSVKGRFTISRDNAKNTVYLQMNSLKPEDTAVYYCAALTPRNRYRKFDYWGQGTQVTVSS | high polyreactivity
QVQLVESGGGLVQAGGSLRLSCAASGFTFGINAMGWYRQAPGKERELVAAINQSGDRTYYADSVKGRFTISRDNAKNTVYLQMNSLKPEDTAVYYCAGPSYWGGGRYRYGYWGQGTQVTVSS | high polyreactivity
QVQLVESGGGLVQAGGSLRLSSAASGGIFSSYAMGWYRQAPGKERELVAAISGSGGRTYYADSVKGRFTISRDNAKNTVYLQMNSLKPEDTSVYYCAAYPVNRVDYRYDYWGQGTQVTVSS | high polyreactivity
QVQLVESGGGLVQAGGSLRLSCAASGGTFNGNTMGWYRQAPGKERELVAVIDWSGGSTYYADSVKGRFTISRDNAKNTVYLQMNSLKPEDTAVYYCNADSDAQFREPKGLYYWGQGTQVTVSS | low polyreactivity
